Experimental data as given in patent US20060253917A1 (published 2006).

B1: OsPN29971 aa 1-108 (other)
chain: EKSDVQSTLEMELDRRSNDWSVKLAEFQSEEQRLRERVRELAEQNVSFQREVTLLESNRIDVSNKITSLELQNKQLNDELQKVKKEHDTLLKSSVELNDNLTKTAEGY
notes: prey, AD fusion; also called Novel protein PN29971, fragment, similar to A. thaliana centromere protein
B2: OsAAD27557 aa 7-142 (other)
chain: DFQPRTFSIKLWPPSESTRLMLVERMTKNLSTESIFSRKYGLLGKEEAHDNAKRIEEVCFASADEHFKEEPDGDGSSAVQLYAKETSKLMLEVLKRGPRTTVEPEVPVADTPLEPADSVFDISGGKRAFIEADEAK
notes: prey, AD fusion; also called PN22896
B3: OsHOS59 aa 1-100 (other)
chain: LDLFMTHYVLLLCSFKEQLQQHVRVHAMEAVMACWELEQTLQSLTGASPREGSGATMSDDEDNQVDSESNMFDGNDGSDGMGFGPLMLTEGERSLVERVR
notes: bait, Gal4 DBD fusion; also called PN20559; O. sativa Homeobox Protein HOS59, Fragment
B4: OsPN23251 aa 112-291 (other)
chain: DMNLITDQDFTELVQKVPDDCLFTIVSDSCHSGGLLDKTKEQIGHSTKQNQAQQIKREERSDSGTGGFRSFLKETLKETVRDAFESRGVHIPHQSSRRNDDEDEEPHMGSSSHGGDRIKNRSLPLSTLIEMLKEKTGKDDIDVGSIRMTLFSLFGDDASPKIKKFMKVMLTKLQEGQHGG
notes: prey, AD fusion; also called Novel Protein PN23251
B5: OsAAD27557 aa 1-149 (other)
chain: MDSTKQDFQPRTFSIKLWPPSESTRLMLVERMTKNLSTESIFSRKYGLLGKEEAHDNAKRIEEVCFASADEHFKEEPDGDGSSAVQLYAKETSKLMLEVLKRGPRTTVEPEVPVADTPLEPADSVFDISGGKRAFIEADEAKELLSPLI
notes: as for B2
B6: Os018989-4003 aa 69-294 (other)
chain: GGGGNAAEREEGGANRNGKKEKTGAQRITGWGLREFSKIVSKKVEAKGRTTYNEVADEIFAELKSITQNGLEFDEKNIRRRVYDAFNVLIAIRVIAKDKKEIKWMGLTNYRYEKIQKLEEVHKELITRIKNKKKLLQEIEKQFDDLQNITLRNQASQRPAESVNGILLPFLLIKTSRKARVEIEISEDSKFARFDFNGAPFTMHDDVSILEAIRRNKGRAGLSIHP
notes: prey, AD fusion; also called PN21044
B7: OsPN23829 aa 3-220 (other)
chain: LSVEKTSSGREYKVKDLSQADFGRLEIELAEVEMPGLMACRAEFGPSQPFKGARISGSLHMTIQTAVLIETLTALGAEVRWCSCNIFSTQDHAAAAIARDSAAVFAWKGETLEEYWWCTERCLDWGVGGGPDLIVDDGGDATLLIHEGVKAEEEFEKSGKVPDPESTDNAEFKIVLTIIRDGLKSDPSKYRKMKERLVGVSEETTTGVKRLYQMQETG
notes: prey, AD fusion
B8: OsGF14-c aa 1-150 (other)
chain: MSREENVYMAKLAEQAERYEEMVEYMEKVAKTVDVEELTVEERNLLSVAYKNVIGARRASWRIVSSIEQKEEGRGNEEHVTLIKEYRGKIEAELSKICDGILKLLDSHLVPSSTAAESKVFYLKMKGDYHRYLAEFKTGAERKEAAESTM
notes: bait, Gal4 DBD fusion; also called PN12464; O. sativa 14-3-3 Protein Homolog GF14-c
B9: OsDAD1 aa 30-115 (other)
chain: DLYVVFAVATALIQVVYMGIVGSFPFNSFLSGVLSCIGTAVLAVCLRIQVNKDNKEFKDLPPERAFADFVLCNLVLHLVIMNFLG
notes: bait, Gal4 DBD fusion; also called PN20251; O. sativa Defender Against Apoptotic Death 1
B10: OsDAD1 aa 1-115 (other)
chain: MPRATSDAKLLIQSLGKAYAATPTNLKIIDLYVVFAVATALIQVVYMGIVGSFPFNSFLSGVLSCIGTAVLAVCLRIQVNKDNKEFKDLPPERAFADFVLCNLVLHLVIMNFLG
notes: bait, Gal4 DBD fusion; also called PN20251
B11: Os006819-2510 aa 1-150 (other)
chain: MAFRLSNSLLGILNAVTFLLSVPVLGGGIWLATRADGTECERYFSAPVIAFGVFLLLVSLAGLVGACCRVNCLLWFYLVAMFVLIVVLFCFTVFAFVVTNKGAGEAVSGRGYKEYRLGDYSNWLQKRMENSKNWNRIRSCLQDSKVCKKL
notes: bait, Gal4 DBD fusion; also called PN20462; Hypothetical Protein 006819-2510, Similar to Senescence-Related Protein 5 from Hemerocallis Hybrid Cultivar
B12: OsPN23878 aa 685-888 (other)
chain: IYEQGLVLQQLKCCGVLEVVRISRSGYPTRMTHQKFARRYGFLLLEDVASQDPLSVSVAILHQFNILPEMYQVGYTKLFFRTGQIGKLEDTRNRTLHGILRVQSCFRGHQARRHARERIRGVLALQSFIRGENARKMYSSLARKHRAAIILQRNLKCWLARRYFVNIRKASVVIQSGIRGCLVRRCAGNVDLLNVLREFESKKE
notes: prey, AD fusion; also called Oryza sativa Putative Myosin (AAL31066.1)
B13: OsPN23226 aa 345-432 (other)
chain: WFMSNQETSFVTIGQRVLANPLRVRFHYGHPDIFDRLFHLTRGGVSKASKIINLSEDIFAGFNSTLREGNVTHHEYMQVGKGRDVGLN
notes: prey, AD fusion; also called Novel Protein PN23226, Callose synthase
B14: Os006819-2510 aa 1-273 (other)
chain: MAFRLSNSLLGILNAVTFLLSVPVLGGGIWLATRADGTECERYFSAPVIAFGVFLLLVSLAGLVGACCRVNCLLWFYLVAMFVLIVVLFCFTVFAFVVTNKGAGEAVSGRGYKEYRLGDYSNWLQKRMENSKNWNRIRSCLQDSKVCKKLQDKNWDRTQFFKADLSPLESGCCKPPSSCNFLYVSGTNWTKVPTNSSDPDCNTWVDDGTQLCYNCQSCKAGAVATLKRDWKRVAVVCIVFLVFIVIVYSLGCCAFRNNRRDNRGAYRGAAWKG
notes: bait, Gal4 DBD fusion; also called PN20462

Experiments:
OsMADS15 aa 100-235 = molecular target: T1, OsMADS15 aa 100-235 (Oryza sativa, UniProt Q6Q9I2 100-235); experiment: Y2H; input trait library
T1 construct: bait, Gal4 DBD fusion; also called PN20842
T1 chain: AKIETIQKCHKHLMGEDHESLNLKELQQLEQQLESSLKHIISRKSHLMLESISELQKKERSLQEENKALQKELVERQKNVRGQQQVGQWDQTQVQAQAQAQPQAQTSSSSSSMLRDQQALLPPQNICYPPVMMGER
In short: (§1)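 Using an automated, high-throughput yeast two-hybrid assay provided by Myriad Genetics Inc. (Salt Lake City, Utah), protein-protein interactions were detected. Against either the input trait or the output trait rice prey library, a bait clone encoding a defined amino-acid fragment of a rice protein was screened. The encoding sequences of the prey clones that were retrieved were then compared against databases by BLAST to identify the interacting proteins.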

OsHOS59 aa 1-100 = molecular target: B3; experiment: Y2H; input trait library
In short: as §1

Os000221-3976 aa 123-238 = molecular target: T2, Os000221-3976 aa 123-238 (Oryza sativa, UniProt Q07078 342-457); experiment: Y2H; input trait library
T2 construct: prey, AD fusion; also called PN23169
In short: as §1

OsHOS59 aa 1-206 = molecular target: T3, OsHOS59 aa 1-206 (Oryza sativa, UniProt Q94LW4 113-311); experiment: Y2H; input trait library
T3 construct: bait, Gal4 DBD fusion; also called PN20559
T3 sequence: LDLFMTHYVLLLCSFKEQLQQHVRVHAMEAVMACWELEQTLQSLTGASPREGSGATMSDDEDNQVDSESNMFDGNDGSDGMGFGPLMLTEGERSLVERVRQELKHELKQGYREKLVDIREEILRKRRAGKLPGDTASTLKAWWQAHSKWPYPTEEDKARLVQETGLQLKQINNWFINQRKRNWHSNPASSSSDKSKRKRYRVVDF
In short: as §1

Os003181-3684 aa 58-140 = molecular target: T4, Os003181-3684 aa 58-140 (Oryza sativa); experiment: Y2H; output trait library
T4 construct: bait, Gal4 DBD fusion; also called PN21036; Hypothetical Protein 003181-3684
T4 chain: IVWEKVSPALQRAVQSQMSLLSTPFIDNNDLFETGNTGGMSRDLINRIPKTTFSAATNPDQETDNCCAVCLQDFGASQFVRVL
In short: as §1

OsE2F2 (367) aa 1-368 = molecular target: T5, OsE2F2 (367) aa 1-368 (Oryza sativa); experiment: Y2H; input trait library
T5 construct: bait, Gal4 DBD fusion; also called PN21003; E2F2 Homolog, Alt
In short: as §1

Os005792-3529 aa 1-55 = molecular target: T6, Os005792-3529 aa 1-55 (Oryza sativa); experiment: Y2H; output trait library
T6 construct: bait, Gal4 DBD fusion; also called PN20080; Hypothetical Protein 005792-3529 Similar to O. sativa Receptor Kinase
T6 chain: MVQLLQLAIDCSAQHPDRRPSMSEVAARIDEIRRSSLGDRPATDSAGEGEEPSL
In short: as §1

OsRBCL aa 287-462 = molecular target: T7, OsRBCL aa 287-462 (Oryza sativa, UniProt P0C510 287-462); experiment: Y2H; input trait library
T7 construct: prey, AD fusion; also called PN23426; O. sativa Chloroplast Ribulose Bisphosphate Carboxylase, Large Chain
In short: as §1

OsEXPB2 aa 80-218 = molecular target: T8, OsEXPB2 aa 80-218 (Oryza sativa, UniProt O24230 80-218); experiment: Y2H; input trait library
T8 construct: prey, AD fusion; also called PN19902
T8 sequence: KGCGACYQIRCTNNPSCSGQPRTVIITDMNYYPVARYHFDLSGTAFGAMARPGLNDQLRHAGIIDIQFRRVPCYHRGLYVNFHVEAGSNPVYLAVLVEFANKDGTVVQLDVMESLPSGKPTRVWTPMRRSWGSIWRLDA
In short: as §1

OsPN23053 aa 1-180 = molecular target: T9, OsPN23053 aa 1-180 (Oryza sativa, UniProt Q8W0H5 141-320); experiment: Y2H; input trait library
T9 construct: prey, AD fusion; also called Novel Protein 23053, Fragment, Similar to Arabidopsis Putative Na+-Dependent Inorganic Phosphate Cotransporter
T9 sequence: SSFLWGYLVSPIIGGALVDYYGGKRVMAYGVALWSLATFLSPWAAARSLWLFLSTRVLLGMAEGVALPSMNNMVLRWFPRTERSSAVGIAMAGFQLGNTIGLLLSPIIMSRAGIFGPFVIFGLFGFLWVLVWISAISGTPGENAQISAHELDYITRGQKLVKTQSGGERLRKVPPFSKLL
In short: as §1

OsEXPB2 aa 80-207 = molecular target: T10, OsEXPB2 aa 80-207 (Oryza sativa, UniProt O24230 80-207); experiment: Y2H; input trait library
T10 construct: prey, AD fusion; also called PN19902; Beta-Expansin EXPB2
T10 sequence: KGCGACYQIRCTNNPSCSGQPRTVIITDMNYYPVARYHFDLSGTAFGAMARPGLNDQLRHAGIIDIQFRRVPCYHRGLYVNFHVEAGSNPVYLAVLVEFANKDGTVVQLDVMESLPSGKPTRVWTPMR
In short: as §1

OsAAK01712 aa 90-221 = molecular target: T11, OsAAK01712 aa 90-221 (Oryza sativa, UniProt Q7Y0Y8 90-221); experiment: Y2H; output trait library
T11 construct: prey, AD fusion; also called PN24059; O. sativa Histone Deacetylase HD1
In short: as §1

Os006819-2510 aa 1-150 = molecular target: B11; experiment: Y2H; output trait library
In short: as §1

Os006819-2510 aa 1-273 = molecular target: B14; experiment: Y2H; output trait library
In short: as §1

OsPN23485 aa 90-243 = molecular target: T12, OsPN23485 aa 90-243 (Oryza sativa, UniProt Q7XPL2 165-318); experiment: Y2H; output trait library
T12 construct: prey, AD fusion; also called Novel Protein PN23485, Similar to Hordeum vulgare Coproporphyrinogen III Oxidase, chloroplast precursor
T12 sequence: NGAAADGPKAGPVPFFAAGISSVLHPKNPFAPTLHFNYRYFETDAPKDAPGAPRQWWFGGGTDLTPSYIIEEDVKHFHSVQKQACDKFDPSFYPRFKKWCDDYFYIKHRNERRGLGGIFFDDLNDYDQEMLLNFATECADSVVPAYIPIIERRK
In short: as §1

T2 sequence (Q07078 342-457): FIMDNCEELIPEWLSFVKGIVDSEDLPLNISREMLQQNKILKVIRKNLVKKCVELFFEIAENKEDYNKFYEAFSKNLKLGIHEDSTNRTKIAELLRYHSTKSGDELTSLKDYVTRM
T7 sequence (P0C510 287-462): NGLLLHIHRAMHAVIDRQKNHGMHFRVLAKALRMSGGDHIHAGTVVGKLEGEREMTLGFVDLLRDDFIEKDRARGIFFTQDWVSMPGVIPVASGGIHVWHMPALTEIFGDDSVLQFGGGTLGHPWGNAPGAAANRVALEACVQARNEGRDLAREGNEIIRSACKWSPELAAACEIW
T11 sequence (Q7Y0Y8 90-221): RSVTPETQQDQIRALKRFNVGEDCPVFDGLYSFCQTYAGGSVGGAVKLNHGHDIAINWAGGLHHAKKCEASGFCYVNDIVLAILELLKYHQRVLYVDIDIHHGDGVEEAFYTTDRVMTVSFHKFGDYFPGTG
T5 sequence (chain, as listed by the source limits assumed): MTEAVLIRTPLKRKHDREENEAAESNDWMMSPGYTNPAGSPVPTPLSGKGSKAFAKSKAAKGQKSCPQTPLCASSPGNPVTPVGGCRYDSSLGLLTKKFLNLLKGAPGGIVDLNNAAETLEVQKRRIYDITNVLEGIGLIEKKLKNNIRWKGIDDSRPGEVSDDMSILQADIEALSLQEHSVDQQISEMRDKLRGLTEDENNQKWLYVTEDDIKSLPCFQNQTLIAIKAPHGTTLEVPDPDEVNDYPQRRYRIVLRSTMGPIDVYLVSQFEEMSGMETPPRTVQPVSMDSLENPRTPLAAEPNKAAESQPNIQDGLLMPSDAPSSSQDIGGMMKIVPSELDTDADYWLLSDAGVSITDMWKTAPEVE

B1
binding result (OsMADS15 aa 100-235): binds

B2
binding result (OsHOS59 aa 1-100): binds

B3
binding result (Os000221-3976 aa 123-238): binds

B4
binding result (OsHOS59 aa 1-206): binds

B5
binding result (Os003181-3684 aa 58-140): binds

B6
binding result (OsE2F2 (367) aa 1-368): binds

B7
binding result (Os005792-3529 aa 1-55): binds

B8
binding result (OsRBCL aa 287-462): binds

B9
binding result (OsEXPB2 aa 80-218): binds | binding result (OsPN23053 aa 1-180): binds

B10
binding result (OsEXPB2 aa 80-207): binds

B11
binding result (OsAAK01712 aa 90-221): binds

B12
binding result (Os006819-2510 aa 1-150): binds

B13
binding result (Os006819-2510 aa 1-273): binds

B14
binding result (OsPN23485 aa 90-243): binds
